Our source for the Kd values is publication PMC9072312 (2022).

In general, Kd refers to the constant that tells how readily two partners part at equilibrium. The low end stands for tighter binding, the high end for weaker binding.

Holding throughout (assay): MST
Experiment [1] has as its target T1, NT-Als6-Ig (N′-terminal domain of C. albicans Als6 fused to the Fc domain of human IgG1) (C. albicans, UniProt Q5A2Z7 19-329).
T1 chain: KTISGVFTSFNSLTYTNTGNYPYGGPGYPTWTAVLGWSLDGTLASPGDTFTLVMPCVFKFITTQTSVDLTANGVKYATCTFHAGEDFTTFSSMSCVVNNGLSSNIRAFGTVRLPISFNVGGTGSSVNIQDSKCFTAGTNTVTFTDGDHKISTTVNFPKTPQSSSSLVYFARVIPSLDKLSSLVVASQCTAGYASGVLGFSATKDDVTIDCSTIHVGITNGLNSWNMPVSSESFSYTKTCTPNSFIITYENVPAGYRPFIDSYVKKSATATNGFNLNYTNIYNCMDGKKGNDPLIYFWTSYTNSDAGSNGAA

Experiment [2] addresses T2, NT-Als7-Ig (N′-terminal domain of C. albicans Als7 fused to the Fc domain of human IgG1) (C. albicans, UniProt Q5A312 19-329).
T2 chain: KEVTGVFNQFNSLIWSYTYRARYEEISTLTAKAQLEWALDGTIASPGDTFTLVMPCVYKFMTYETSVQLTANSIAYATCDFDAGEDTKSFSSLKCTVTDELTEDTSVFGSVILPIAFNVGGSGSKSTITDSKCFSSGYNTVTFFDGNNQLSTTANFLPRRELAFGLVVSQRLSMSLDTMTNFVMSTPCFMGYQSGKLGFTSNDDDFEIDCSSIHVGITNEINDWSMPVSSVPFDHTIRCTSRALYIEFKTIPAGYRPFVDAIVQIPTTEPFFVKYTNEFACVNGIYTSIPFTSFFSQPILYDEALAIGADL

The target of experiment [3] is NT-Als9-2-Ig (N′-terminal domain of C. albicans Als9, allele Als9-2, fused to the Fc domain of human IgG1) (C. albicans).
The target of experiment [4] is T3, PVR-Ig (extracellular portion of human PVR fused to the Fc domain of human IgG1) (human, UniProt P15151 21-343).
T3 chain: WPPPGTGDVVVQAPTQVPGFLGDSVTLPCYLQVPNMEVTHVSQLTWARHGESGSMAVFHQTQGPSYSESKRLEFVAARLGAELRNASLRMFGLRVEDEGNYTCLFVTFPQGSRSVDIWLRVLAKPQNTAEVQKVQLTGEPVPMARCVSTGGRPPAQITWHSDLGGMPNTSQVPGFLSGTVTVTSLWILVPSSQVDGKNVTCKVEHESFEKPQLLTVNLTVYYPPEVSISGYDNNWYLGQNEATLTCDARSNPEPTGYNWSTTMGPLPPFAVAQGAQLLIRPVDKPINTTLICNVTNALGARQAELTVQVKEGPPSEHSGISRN

B1: TIGIT-Ig (extracellular ligand-binding domain of human TIGIT fused to the Fc domain of human IgG1) (Fc fusion)
chain: MMTGTIETTGNISAEKGGSIILQCHLSSTTAQVTQVNWEQQDQLLAICNADLGWHISPSFKDRVAPGPGLGLTLQSLTVNDTGEYFCIYHTYPDGTYTGRIFLEVLESSVAEHGARFQIP
modifications: fluorescently labeled with the Monolith NT Protein Labeling Kit RED-NHS
As for B1, the Kd was 6 nM in experiment [1], 42 nM in experiment [2], 455 nM in experiment [3] and 49 nM in experiment [4].
